Assays:
LR 49–313 = target: T1, LR 49–313 (Plenodomus lingam, UniProt Q9HGT7); assay: time-resolved absorption spectroscopy (photocycle); type: binding; settings: covalent; DDM micelles; 5 μM all-trans-retinal added at solubilization
T1 construct: gene ops; N-terminally truncated 49-313, C-terminal polyhistidine tag, codon-optimised synthetic gene, expressed in Leishmania tarentolae (LEXSY), DDM; mostly monomer
T1 sequence (Q9HGT7 49-313): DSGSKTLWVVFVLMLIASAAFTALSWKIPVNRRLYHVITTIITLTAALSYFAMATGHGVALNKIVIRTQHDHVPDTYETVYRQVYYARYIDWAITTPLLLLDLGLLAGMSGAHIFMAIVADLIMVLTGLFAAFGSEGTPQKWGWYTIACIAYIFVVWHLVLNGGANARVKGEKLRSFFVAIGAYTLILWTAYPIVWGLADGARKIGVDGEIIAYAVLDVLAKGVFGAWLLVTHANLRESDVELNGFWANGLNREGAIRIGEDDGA

LR (Mac), LR 1–313 = target: T2, LR (Mac), LR 1–313 (Plenodomus lingam, UniProt Q9HGT7); assay: X-ray crystallography, […] Å; type: binding; settings: covalent; retinal Schiff base at K270; pH 7.0
T2 construct: gene ops; full-length 1-313, C-terminal polyhistidine tag, codon-optimised synthetic gene, expressed in Leishmania tarentolae (LEXSY), DDM; likely trimer; residues 42-286 resolved
T2 sequence (Q9HGT7 1-313): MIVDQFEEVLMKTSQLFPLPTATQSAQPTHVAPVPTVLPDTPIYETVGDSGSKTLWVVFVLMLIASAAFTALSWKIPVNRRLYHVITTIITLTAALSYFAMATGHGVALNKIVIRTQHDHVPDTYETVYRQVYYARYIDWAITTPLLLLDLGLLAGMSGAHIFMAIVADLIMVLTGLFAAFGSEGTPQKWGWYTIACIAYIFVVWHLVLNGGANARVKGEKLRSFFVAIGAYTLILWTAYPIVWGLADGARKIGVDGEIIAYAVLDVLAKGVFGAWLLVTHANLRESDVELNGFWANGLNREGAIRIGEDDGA

[1] = target: Leptosphaeria rhodopsin LR (Mac), full-length (residues 1–313) (Leptosphaeria maculans); assay: SEC; Superdex 200 Increase 10/300 GL, 0.05% DDM micelles; masses calculated from retention volume at pH 8.0 (results; the methods give a SEC buffer of pH 6.5, 0.2 M NaCl); trimer to monomers
[2] = target: Leptosphaeria rhodopsin LR (Mac), full-length (residues 1–313) (Leptosphaeria maculans); assay: cross-linking; glutaraldehyde vapor for 30 min, then gradient SDS-PAGE 18.5-8%; protein in DDM micelles; untreated samples as control
[3] = target: Leptosphaeria rhodopsin LR, N-terminally truncated (residues 49–313) (Leptosphaeria maculans); assay: SEC; Superdex 200 Increase 10/300 GL, 0.05% DDM micelles; masses calculated from retention volume at pH 8.0 (results; the methods give a SEC buffer of pH 6.5, 0.2 M NaCl); trimer to monomers
[4] = target: Leptosphaeria rhodopsin LR, N-terminally truncated (residues 49–313) (Leptosphaeria maculans); assay: cross-linking; glutaraldehyde vapor for 30 min, then gradient SDS-PAGE 18.5-8%; protein in DDM micelles; untreated samples as control

## CC1=C(/C=C/C(C)=C/C=C/C(C)=C/C=O)C(C)(C)CCC1 [ATR, all-trans-retinal]
LR 49–313
  time-resolved absorption spectroscopy (photocycle): Both full-length and truncated constructs of LR in DDM micelles exhibit almost similar relaxation time
LR (Mac), LR 1–313
  X-ray crystallography, 2.2 Å: retinal chromophore covalently attached to the K270 on the TM7

## Leptosphaeria rhodopsin LR (Mac), full-length (residues 1–313) (natural protein)
[1]
  ratio between monomers and trimers (monomers:trimers): 0.4
  stoichiometry N: 3
[2]
  stoichiometry N: < 3

## Leptosphaeria rhodopsin LR, N-terminally truncated (residues 49–313) (domain or fragment)
[3]
  ratio between monomers and trimers (monomers:trimers): 40
  stoichiometry N: 3
[4]
  stoichiometry N: < 3

— publication PMC8245419, “Structure-based insights into evolution of rhodopsins” (Communications Biology, 2021)
